From PMC10397247

What was measured:
Test in all cases: two-hybrid library CCmax;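 also: natural log of median RNA to DNA barcode read ratio; higher means stronger binding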
4H775-AA = molecular target: T1, 4H775-AA; conditions: mean of both orientations
T1 chain: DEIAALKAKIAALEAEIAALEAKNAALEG

4H390-AA = molecular target: T2, 4H390-AA; conditions: mean of both orientations
T2 chain: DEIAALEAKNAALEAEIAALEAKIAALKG

4H2736-AA = molecular target: T3, 4H2736-AA; conditions: mean of both orientations
T3 chain: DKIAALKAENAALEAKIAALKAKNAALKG

4H2985-AA = molecular target: T4, 4H2985-AA
T4 chain: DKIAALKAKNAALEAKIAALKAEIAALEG

4H2873-AA = molecular target: T5, 4H2873-AA; conditions: mean of both orientations
T5 chain: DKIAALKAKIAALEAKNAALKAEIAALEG

4H_APH = molecular target: T6, 4H_APH; conditions: mean of both orientations
T6 chain: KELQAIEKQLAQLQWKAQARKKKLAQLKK

4H3587-AA = molecular target: T7, 4H3587-AA; conditions: mean of both orientations
T7 chain: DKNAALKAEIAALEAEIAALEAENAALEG

4H_BCR = molecular target: T8, 4H_BCR; conditions: mean of both orientations
T8 chain: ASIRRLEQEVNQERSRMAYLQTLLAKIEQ

4H2705-AA = molecular target: T9, 4H2705-AA
T9 chain: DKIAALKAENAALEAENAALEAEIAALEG

4H3409-AA = molecular target: T10, 4H3409-AA; conditions: mean of both orientations
T10 chain: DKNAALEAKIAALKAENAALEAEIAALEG

4H816-AA = molecular target: T11, 4H816-AA; conditions: mean of both orientations
T11 chain: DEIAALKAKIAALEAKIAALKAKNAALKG

4H3940-AA = molecular target: T12, 4H3940-AA; conditions: mean of both orientations
T12 chain: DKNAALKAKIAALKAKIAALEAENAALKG

O11-AA = molecular target: T13, O11-AA; conditions: mean of both orientations
T13 chain: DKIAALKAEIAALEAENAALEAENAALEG

4H3625-AA = molecular target: T14, 4H3625-AA; conditions: mean of both orientations
T14 chain: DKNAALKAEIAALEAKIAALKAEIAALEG

4H2888-AA = molecular target: T15, 4H2888-AA; conditions: mean of both orientations
T15 chain: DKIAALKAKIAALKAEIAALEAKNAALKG

O14-AA = molecular target: T16, O14-AA; conditions: mean of both orientations
T16 chain: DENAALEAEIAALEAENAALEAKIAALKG

4H3905-AA = molecular target: T17, 4H3905-AA; conditions: mean of both orientations
T17 chain: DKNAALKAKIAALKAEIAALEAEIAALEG

4H278-AA = molecular target: T18, 4H278-AA; conditions: mean of both orientations
T18 chain: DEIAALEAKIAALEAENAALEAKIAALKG

O13-AA = molecular target: T19, O13-AA; conditions: mean of both orientations
T19 chain: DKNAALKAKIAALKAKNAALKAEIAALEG

4H43-AA = molecular target: T20, 4H43-AA; conditions: mean of both orientations
T20 chain: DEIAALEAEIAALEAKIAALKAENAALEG

4H451-AA = molecular target: T21, 4H451-AA; conditions: mean of both orientations
T21 chain: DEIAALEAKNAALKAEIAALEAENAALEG

4H510-AA = molecular target: T22, 4H510-AA; conditions: mean of both orientations
T22 chain: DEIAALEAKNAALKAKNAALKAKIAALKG

4H_GCN4 = conditions: mean of both orientations
4H2758-AA = molecular target: T23, 4H2758-AA; conditions: mean of both orientations
T23 chain: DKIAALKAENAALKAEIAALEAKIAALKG

4H4038-AA = molecular target: T24, 4H4038-AA; conditions: mean of both orientations
T24 chain: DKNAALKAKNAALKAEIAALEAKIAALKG

4H384-AA = molecular target: T25, 4H384-AA; conditions: mean of both orientations
T25 chain: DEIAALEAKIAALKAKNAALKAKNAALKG

4H337-AA = molecular target: T26, 4H337-AA; conditions: mean of both orientations
T26 chain: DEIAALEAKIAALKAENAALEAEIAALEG

4H87-AA = molecular target: T27, 4H87-AA; conditions: mean of both orientations
T27 chain: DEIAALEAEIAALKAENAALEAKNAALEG

4H3590-AA = molecular target: T28, 4H3590-AA; conditions: mean of both orientations
T28 chain: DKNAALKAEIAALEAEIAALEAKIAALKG

4H3049-AA = molecular target: T29, 4H3049-AA; conditions: mean of both orientations
T29 chain: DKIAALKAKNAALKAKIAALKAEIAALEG

GCN2_T = conditions: mean of both orientations
4H3134-AA = molecular target: T30, 4H3134-AA; conditions: mean of both orientations
T30 chain: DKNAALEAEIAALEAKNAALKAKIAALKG

Chain of 4H_GCN4 (chain, as listed by the source): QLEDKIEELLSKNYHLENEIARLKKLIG

B1: 4H2705-AA (peptide)
chain: DKIAALKAENAALEAENAALEAEIAALEG
interaction score (4H775-AA): -1.89 | interaction score (4H390-AA): -0.544 | interaction score (4H2736-AA): -1.45 | interaction score (4H2985-AA): -0.31 | interaction score (4H2873-AA): -1.27 | interaction score (4H_APH): -1.6 | interaction score (4H3587-AA): -1.78 | interaction score (4H_BCR): -1.75 | interaction score (4H2705-AA): -1.4 | interaction score (4H3409-AA): -1.62 | interaction score (4H816-AA): -1.52 | interaction score (4H3940-AA): -1.62 | interaction score (O11-AA): -1.81 | interaction score (4H3625-AA): -2.01 | interaction score (4H2888-AA): -1.97 | interaction score (O14-AA): -1.68 | interaction score (4H3905-AA): -1.49 | interaction score (4H278-AA): -0.473 | interaction score (O13-AA): -1.17 | interaction score (4H43-AA): -1.82 | interaction score (4H451-AA): -1.84 | interaction score (4H510-AA): 1.88 | interaction score (4H_GCN4): -1.71 | interaction score (4H2758-AA): -1.01 | interaction score (4H4038-AA): 0.153 | interaction score (4H384-AA): 1.45 | interaction score (4H337-AA): -0.896 | interaction score (4H87-AA): -1.62 | interaction score (4H3590-AA): -1.6 | interaction score (4H3049-AA): 1.67 | interaction score (GCN2_T): -1.4 | interaction score (4H3134-AA): -0.0637
